{"source": "patent US10877024B2", "about": "“Methods of determining interferon having direct inhibitory effects on tumors and uses thereof” (SUPERLAB FAR EAST LIMITED, priority 2015, dated 2020)", "molecules": {"B1": {"name": "rSIFN-co: Recombinant super-compound interferon; amino acid sequence SEQ ID NO: 1 (same as INFERGEN), encoded by novel nucleotide sequence SEQ ID NO: 2 (protein)", "chain": "MCDLPQTHSLGNRRALILLAQMRRISPFSCLKDRHDFGFPQEEFDGNQFQKAQAISVLHEMIQQTFNLFSTKDSSAAWDESLLEKFYTELYQQLNDLEACVIQEVGVEETPLMNVDSILAVKKYFQRITLYLTEKKYSPCAWEVVRAEIMRSFSLSTNLQERLRRKE", "modifications": "Amino acid sequence of recombinant interferon"}}, "key": {"[1]": {"tested_on": "Human Colon Cancer HT-29 Xenografts", "assay": "rSIFN-co on human colon cancer HT-29 xenografts in nude mice", "assay_type": "in vivo", "conditions": "for TV(mm^3, mean ± SD) (D 0): day 0; for % Inhibition / T/C (%) / TV(mm^3, mean ± SD) (D 28): day 28"}, "LRP6": {"tested_on": "LRP6", "assay": "qPCR of Wnt-related co-receptor mRNA", "assay_type": "cell-based, human", "conditions": "10 μg/ml, 24 hr", "method": "The regulation of LRP6/FZD6 by rSIFN-co was investigated. This was conducted by qPCR as performed in Example 9. […] After 24 hr of treatment, total cellular mRNA was isolated using TRIZOL Reagent, and cDNA was subjected to qPCR using specific primers of LRP6 and FZD6. The primers used were: LRP6 sense primer: 5′-[…]-3′ (SEQ ID NO: 4) and antisense primer: 5′-[…]-3′ (SEQ ID NO: 5), and FZD6 sense primer: 5′-[…]-3′ (SEQ ID NO: 6) and antisense primer: 5′-[…]-3′ (SEQ ID NO: 7). Experiments were conducted in triplicate and normalized with the Mock control group. Results were recorded as relative mRNA level of either LRP6 or FZD6 relative to GAPDH."}, "Lung cancer cells, A549": {"tested_on": "Lung cancer cells, A549", "assay": "Colony and pseudopod formation in three dimensional Matrigel culture", "assay_type": "cell-based, human", "conditions": "10 mcg/ml", "method": "Matrigel (from BD Corporation, Cat #: 356234) was thawed on ice in a 4° C. refrigerator overnight, and a 24-well plate was frozen at −20° C. overnight. Thereafter, each well of the frozen 24-well plate was coated with 150 μl of the Matrigel at 1.0 mg/ml. The Matrigel coated plate was then incubated 37° C. for 20-30 min. Lung cancer cells, A549, were trypsinized and counted. […] The cells were incubated at 37° C. for at least about 8 days. About 200 μl of the above conditioned medium was added every 3 days to prevent the medium from drying. On the 4th or 8th day, photographs were taken to observe the size of the colonies and invasive feet (pseudopod) formation. The experiment was conducted in triplicate."}, "different cancer cells": {"tested_on": "different cancer cells", "assay": "Cell viability, Am-Blue assay, 48 hr, statements over all cell lines", "assay_type": "cell-based, human", "conditions": "any of the cancer cell lines", "method": "Cell culture and reagents. human lung cancer cell lines (A549, H1299, H460, Calu-1), human liver cancer cell lines (SMMC-7721, Huh-7, CL-1), human cervical carcinoma cell line (Hela), human breast cancer cell line (MDA-MB-231), human pancreatic cancer cell line (PANC-1) and human colon cancer cell lines (SW620, HT29, SW480) were purchased from the Shanghai Cell Collection (Shanghai, China). The above cell lines were cultured in 5% CO2 at 37° C. in corresponding complete growth medium formulated by the Shanghai Cell Collection, with 10% heat-inactivated fetal bovine serum (Biochrom, Germany), supplemented with 4 mM glutamine, 50 U/ml penicillin and […] streptomycin.\nAbout 5×10^3 cells in 100 μl complete medium per well were plated in 96-well plates, incubated overnight, and then treated with IFN α-2b or rSIFN-co at concentrations of 100 μg/ml, 50 μg/ml, 25 μg/ml, 12.5 μg/ml, 6.25 μg/ml, 3.13 μg/ml, 1.56 μg/ml, 0.78 μg/ml, 0.39 μg/ml, and 0.20 μg/ml, respectively, for about 48 hr, at which time the cells were harvested for analysis. The cell viability rate was evaluated by SunBio Am-Blue assay kit (Cat #: SBAB8025, Shanghai SBO Medical Biotechnology Co., Ltd, Shanghai, China). […] After shaking the plates for 30 seconds, the absorbance for each well was read at both 570 nm and 595 nm by a Thermo Scientific Microplate Reader (Thermon Fisher Scientific, Inc., Lowell, Mass.). […]"}, "beta-catenin": {"tested_on": "beta-catenin", "assay": "Beta-catenin protein level by Western Blot", "assay_type": "cell-based, human", "conditions": "10 mcg/ml, 24, 48, 72 hr", "method": "Cancer cells, A549 and Sw480, were cultured to about 85% confluency and put into 6 well plates. […] After treatment, the cells were harvested for Western Blot to detect the beta-catenin protein level, using its specific antibody, with GAPDH as endogenous loading control. The experiment was conducted in triplicate.\nTo determine the expression of various proteins, cells were harvested from the plates and total cellular protein were extracted using extraction reagents (Cat #: P0013) according to the manufacturer's protocol (Beyotime, China). The total protein concentration was determined by the Lowry Protein Assay kit (Bio-Rad, USA). […] The membranes were blocked with 5% skimmed milk, bovine serum albumin, 10 mmol/L Tris-HCl at pH 8.0, 150 mmol/L NaCl, and 0.05% Tween 20 overnight at 4° C. The blocked membranes were then incubated with primary antibodies (1:1000 dilutions), followed by secondary HRP-conjugated antibodies. Blots were visualized using Luminescence/Fluorescence Imaging LAS4000 System (GE Healthcare Life Sciences, USA) with super signal west pico chemiluminescent substrate kit (Thermo scientific, USA).\nFor this determination, the primary antibodies used were mouse monoclonal anti-beta-catenin antibodies (1:1000; Santa Cruz Technology, Santa Cruz, Calif.) and mouse monoclonal anti-GAPDH antibodies (1:2000) (Kangwei Biotechnology, China). […]"}, "[2]": {"conditions": "0.05 mg/mouse i.t. every other day"}, "[3]": {"conditions": "0.10 mg/mouse i.t. every other day"}, "[4]": {"conditions": "0.15 mg/mouse i.t. every other day"}}}
{"molecule": "B1", "values": [{"measurement": "TV(mm^3, mean ± SD) (D 0)", "setting": "[1]; [2]", "result": "130 ± 26", "unit": "mm^3"}, {"measurement": "% Inhibition", "setting": "[1]; [2]", "result": 61, "unit": "%"}, {"measurement": "T/C (%)", "setting": "[1]; [2]", "result": 39, "unit": "%"}, {"measurement": "TV(mm^3, mean ± SD) (D 28)", "setting": "[1]; [2]", "result": "416 ± 166", "unit": "mm^3"}, {"measurement": "TV(mm^3, mean ± SD) (D 0)", "setting": "[1]; [3]", "result": "128 ± 39", "unit": "mm^3"}, {"measurement": "% Inhibition", "setting": "[1]; [3]", "result": 49.82, "unit": "%"}, {"measurement": "T/C (%)", "setting": "[1]; [3]", "result": 50.18, "unit": "%"}, {"measurement": "TV(mm^3, mean ± SD) (D 28)", "setting": "[1]; [3]", "result": "541 ± 196", "unit": "mm^3"}, {"measurement": "TV(mm^3, mean ± SD) (D 0)", "setting": "[1]; [4]", "result": "131 ± 36", "unit": "mm^3"}, {"measurement": "% Inhibition", "setting": "[1]; [4]", "result": 46.37, "unit": "%"}, {"measurement": "T/C (%)", "setting": "[1]; [4]", "result": 53.63, "unit": "%"}, {"measurement": "TV(mm^3, mean ± SD) (D 28)", "setting": "[1]; [4]", "result": "570 ± 144", "unit": "mm^3"}, {"measurement": "tolerability, signs of drug toxicity, changes in weight", "setting": "[1]; 0.05-0.15 mg/mouse i.t. every other day, 28 days", "result": "tolerated the tested dosages and showed no signs of drug toxicity and minimal changes in weight"}, {"measurement": "relative expression of the LRP6 mRNA", "setting": "LRP6; A549 cells", "result": "significant reduction"}, {"measurement": "relative expression of the LRP6 mRNA", "setting": "LRP6; HT-29 cells", "result": "significant reduction"}, {"measurement": "relative expression of the LRP6 mRNA", "setting": "LRP6; SW620 cells", "result": "significant reduction"}, {"measurement": "size of the colonies", "setting": "Lung cancer cells, A549; after 4 days", "result": "smaller colonies than the untreated group"}, {"measurement": "invasive feet (pseudopod) formation", "setting": "Lung cancer cells, A549; after 8 days", "result": "almost no extrusive pseudopodium around the cells"}, {"measurement": "size of the colonies", "setting": "Lung cancer cells, A549; after 8 days", "result": "smallest colonies of the 3 groups"}, {"measurement": "cell viability at 100 mcg/ml", "setting": "different cancer cells", "result": "cell viability could not be detected"}, {"measurement": "beta-catenin protein level", "setting": "beta-catenin; A549 cells", "result": "dramatically decreased beta-catenin protein level after treatment for 2 days (48 hr)"}, {"measurement": "beta-catenin protein level", "setting": "beta-catenin; SW480 cells", "result": "obvious after 72 hours of treatment"}]}
